{"source": "paper PMC5505246", "about": "“Assembly of Francisella novicida Cpf1 endonuclease in complex with guide RNA and target DNA”", "target": "FnCpf1 (Cas12a) (Francisella novicida U112, UniProt A0Q7Q2 1-1300)", "sequence (A0Q7Q2 whole entry)": "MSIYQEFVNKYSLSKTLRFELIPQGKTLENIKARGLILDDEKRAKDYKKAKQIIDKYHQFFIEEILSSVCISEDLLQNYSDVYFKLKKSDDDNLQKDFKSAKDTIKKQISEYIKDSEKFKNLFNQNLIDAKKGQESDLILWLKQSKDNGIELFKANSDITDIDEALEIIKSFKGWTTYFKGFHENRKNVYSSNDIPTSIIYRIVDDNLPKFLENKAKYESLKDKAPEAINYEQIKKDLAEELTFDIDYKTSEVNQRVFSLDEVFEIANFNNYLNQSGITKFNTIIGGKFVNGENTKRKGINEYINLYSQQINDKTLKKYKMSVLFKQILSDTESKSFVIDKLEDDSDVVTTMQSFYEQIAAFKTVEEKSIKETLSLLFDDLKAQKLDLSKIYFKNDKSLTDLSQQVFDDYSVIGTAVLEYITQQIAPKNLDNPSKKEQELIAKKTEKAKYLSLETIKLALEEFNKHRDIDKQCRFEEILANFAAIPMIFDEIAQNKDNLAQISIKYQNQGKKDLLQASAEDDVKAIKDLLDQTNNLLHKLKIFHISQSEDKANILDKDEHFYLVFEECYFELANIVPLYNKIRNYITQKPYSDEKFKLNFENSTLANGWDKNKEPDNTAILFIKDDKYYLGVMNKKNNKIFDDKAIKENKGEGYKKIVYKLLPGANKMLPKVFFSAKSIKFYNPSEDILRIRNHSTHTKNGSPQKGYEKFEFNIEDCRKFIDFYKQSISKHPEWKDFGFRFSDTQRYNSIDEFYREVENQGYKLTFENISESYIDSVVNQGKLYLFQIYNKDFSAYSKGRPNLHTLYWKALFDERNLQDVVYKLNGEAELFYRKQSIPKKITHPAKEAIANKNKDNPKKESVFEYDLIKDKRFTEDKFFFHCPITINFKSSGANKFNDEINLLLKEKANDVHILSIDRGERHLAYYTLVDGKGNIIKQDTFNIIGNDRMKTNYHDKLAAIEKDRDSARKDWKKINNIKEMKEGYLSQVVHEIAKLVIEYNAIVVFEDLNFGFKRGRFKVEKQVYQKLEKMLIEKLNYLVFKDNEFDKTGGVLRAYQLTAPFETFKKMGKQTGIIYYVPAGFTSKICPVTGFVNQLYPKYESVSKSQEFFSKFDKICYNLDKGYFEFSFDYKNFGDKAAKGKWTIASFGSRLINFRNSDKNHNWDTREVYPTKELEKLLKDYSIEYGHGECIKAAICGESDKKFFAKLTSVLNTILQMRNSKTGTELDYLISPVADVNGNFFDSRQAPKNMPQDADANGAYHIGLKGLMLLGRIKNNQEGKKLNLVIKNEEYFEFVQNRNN", "test": "native PAGE / preparative native electrophoresis; 5 mM MgCl2; protein:RNA:DNA 1:1.3:1.7; Reconstitution: 81 mM KCl, 38 mM bicine pH 8.0, 5 mM MgCl2; protein + crRNA 30 min at 293 K, then DNA duplex 60 min at 368 K (so in the source); complex in 150 mM KCl, 50 mM bicine pH 8.0, 0.5 mM TCEP", "details": "protein: recombinant; tags: C-terminal His6; crRNA-guided DNA target"}
{"binder": "crRNA + 31-nt dsDNA target (target and nontarget strands) (mixed) RNA: AAUUUCUACUGUUGUAGAUGAGAAGUCAUUUAAUAAGGCCACU DNA 1: GCAGTGGCCTTATTAAATGACTTCTCTAACG DNA 2: CGTTAGAGAAGTCATTTAATAAGGCCACTGC", "values": [{"measurement": "binding result", "result": "binds"}]}
